Results published in paper PMC8307404, “Crystal Structure-Guided Design of Bisubstrate Inhibitors and Photoluminescent Probes for Protein Kinases of the PIM Family” (Molecules, 2021).
Square brackets hold non-standard residues; d marks the D form. Peptide text beside a SMILES is read from it. * marks the point of attachment. X3 = O=C(CCCCCNCc1nc2c(sc3cc(Br)cnc32)c(=O)[nH]1)*

What was measured:
Assay in all cases: Kinase profiling (radiometric filter-binding)
Format in all cases: biochemical
Src = Src (Homo sapiens, UniProt P12931); settings: 1 µM inhibitor, read-out: Residual activity, %
Src, sequence (P12931 whole entry): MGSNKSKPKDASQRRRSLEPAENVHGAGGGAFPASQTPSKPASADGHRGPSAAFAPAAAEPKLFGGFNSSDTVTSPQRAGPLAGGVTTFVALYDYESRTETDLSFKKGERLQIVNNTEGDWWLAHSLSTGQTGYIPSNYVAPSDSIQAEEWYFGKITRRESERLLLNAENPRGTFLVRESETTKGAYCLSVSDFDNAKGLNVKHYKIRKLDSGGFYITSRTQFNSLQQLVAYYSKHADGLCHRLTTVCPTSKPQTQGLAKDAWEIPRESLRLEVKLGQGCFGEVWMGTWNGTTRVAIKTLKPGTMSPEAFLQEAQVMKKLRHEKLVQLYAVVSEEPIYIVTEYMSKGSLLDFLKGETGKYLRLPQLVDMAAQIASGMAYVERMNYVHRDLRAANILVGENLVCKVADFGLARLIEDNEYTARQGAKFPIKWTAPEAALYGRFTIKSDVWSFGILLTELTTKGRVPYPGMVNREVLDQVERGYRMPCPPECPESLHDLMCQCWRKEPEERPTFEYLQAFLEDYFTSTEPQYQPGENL
Summary of the method: (§1)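 Residual kinase activity, as a percentage of the inhibitor-free control, was measured at 1 µM final compound by radiometric filter binding. Each human enzyme was run with ATP no higher than its own KM.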

GCK = target: T1, GCK (Homo sapiens, UniProt Q12851); settings: 1 µM inhibitor, read-out: Residual activity, %
T1 sequence (Q12851 1-820): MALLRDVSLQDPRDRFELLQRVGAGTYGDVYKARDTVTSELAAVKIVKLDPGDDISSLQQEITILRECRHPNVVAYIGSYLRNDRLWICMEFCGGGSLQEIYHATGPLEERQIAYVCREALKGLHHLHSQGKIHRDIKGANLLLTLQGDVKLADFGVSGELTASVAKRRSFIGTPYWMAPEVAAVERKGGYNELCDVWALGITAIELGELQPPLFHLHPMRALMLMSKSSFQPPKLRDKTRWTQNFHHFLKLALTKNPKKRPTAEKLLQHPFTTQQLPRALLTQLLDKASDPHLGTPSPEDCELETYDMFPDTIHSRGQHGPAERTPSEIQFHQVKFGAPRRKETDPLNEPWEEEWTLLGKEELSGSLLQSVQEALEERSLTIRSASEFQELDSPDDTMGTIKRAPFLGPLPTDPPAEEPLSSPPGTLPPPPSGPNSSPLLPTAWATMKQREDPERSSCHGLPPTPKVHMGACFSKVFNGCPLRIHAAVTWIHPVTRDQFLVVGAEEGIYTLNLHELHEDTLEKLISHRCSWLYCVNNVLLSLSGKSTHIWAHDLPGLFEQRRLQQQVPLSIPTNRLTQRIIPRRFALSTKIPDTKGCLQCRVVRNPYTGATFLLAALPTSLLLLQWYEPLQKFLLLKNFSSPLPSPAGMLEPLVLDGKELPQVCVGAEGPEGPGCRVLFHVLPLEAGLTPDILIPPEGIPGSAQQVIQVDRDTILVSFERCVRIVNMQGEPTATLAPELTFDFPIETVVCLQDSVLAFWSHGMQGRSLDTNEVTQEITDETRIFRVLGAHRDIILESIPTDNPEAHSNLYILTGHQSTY
Summary of the method: as §1

JNK3 = JNK3 (Homo sapiens, UniProt P53779); settings: JNK3, 1 µM inhibitor; read-out: Residual activity, %
JNK3, sequence (P53779 whole entry): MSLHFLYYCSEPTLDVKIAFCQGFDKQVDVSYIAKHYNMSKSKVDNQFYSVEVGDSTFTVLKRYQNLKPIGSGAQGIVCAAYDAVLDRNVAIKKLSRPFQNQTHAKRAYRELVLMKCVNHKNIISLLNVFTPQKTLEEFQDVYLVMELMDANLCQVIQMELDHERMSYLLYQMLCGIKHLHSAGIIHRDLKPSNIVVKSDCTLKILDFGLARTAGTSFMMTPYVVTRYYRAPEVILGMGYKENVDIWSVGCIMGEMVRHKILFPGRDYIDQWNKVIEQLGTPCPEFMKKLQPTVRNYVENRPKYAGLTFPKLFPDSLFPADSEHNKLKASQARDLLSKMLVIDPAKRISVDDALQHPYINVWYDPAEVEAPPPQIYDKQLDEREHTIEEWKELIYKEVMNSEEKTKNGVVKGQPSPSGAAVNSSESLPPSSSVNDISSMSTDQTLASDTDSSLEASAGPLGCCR
Summary of the method: as §1

JNK1 = JNK1 (Homo sapiens, UniProt P45983); settings: JNK1, 1 µM inhibitor; read-out: Residual activity, %
JNK1, sequence (P45983 whole entry): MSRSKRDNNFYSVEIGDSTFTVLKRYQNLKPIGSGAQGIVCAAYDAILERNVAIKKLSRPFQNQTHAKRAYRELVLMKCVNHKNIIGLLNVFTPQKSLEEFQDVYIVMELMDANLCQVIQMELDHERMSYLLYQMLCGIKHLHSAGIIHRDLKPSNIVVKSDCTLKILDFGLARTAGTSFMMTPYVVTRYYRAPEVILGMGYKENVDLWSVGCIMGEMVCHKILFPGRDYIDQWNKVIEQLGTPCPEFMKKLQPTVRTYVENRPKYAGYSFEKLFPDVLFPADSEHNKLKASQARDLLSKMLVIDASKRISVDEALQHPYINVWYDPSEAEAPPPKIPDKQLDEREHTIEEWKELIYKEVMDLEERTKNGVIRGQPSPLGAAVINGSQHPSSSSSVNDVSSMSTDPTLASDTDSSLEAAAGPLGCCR
Summary of the method: as §1

ASK1 = target: T2, ASK1 (Homo sapiens, UniProt Q99683); settings: ASK1, 1 µM inhibitor; read-out: Residual activity, %
T2 sequence (Q99683 1-1374): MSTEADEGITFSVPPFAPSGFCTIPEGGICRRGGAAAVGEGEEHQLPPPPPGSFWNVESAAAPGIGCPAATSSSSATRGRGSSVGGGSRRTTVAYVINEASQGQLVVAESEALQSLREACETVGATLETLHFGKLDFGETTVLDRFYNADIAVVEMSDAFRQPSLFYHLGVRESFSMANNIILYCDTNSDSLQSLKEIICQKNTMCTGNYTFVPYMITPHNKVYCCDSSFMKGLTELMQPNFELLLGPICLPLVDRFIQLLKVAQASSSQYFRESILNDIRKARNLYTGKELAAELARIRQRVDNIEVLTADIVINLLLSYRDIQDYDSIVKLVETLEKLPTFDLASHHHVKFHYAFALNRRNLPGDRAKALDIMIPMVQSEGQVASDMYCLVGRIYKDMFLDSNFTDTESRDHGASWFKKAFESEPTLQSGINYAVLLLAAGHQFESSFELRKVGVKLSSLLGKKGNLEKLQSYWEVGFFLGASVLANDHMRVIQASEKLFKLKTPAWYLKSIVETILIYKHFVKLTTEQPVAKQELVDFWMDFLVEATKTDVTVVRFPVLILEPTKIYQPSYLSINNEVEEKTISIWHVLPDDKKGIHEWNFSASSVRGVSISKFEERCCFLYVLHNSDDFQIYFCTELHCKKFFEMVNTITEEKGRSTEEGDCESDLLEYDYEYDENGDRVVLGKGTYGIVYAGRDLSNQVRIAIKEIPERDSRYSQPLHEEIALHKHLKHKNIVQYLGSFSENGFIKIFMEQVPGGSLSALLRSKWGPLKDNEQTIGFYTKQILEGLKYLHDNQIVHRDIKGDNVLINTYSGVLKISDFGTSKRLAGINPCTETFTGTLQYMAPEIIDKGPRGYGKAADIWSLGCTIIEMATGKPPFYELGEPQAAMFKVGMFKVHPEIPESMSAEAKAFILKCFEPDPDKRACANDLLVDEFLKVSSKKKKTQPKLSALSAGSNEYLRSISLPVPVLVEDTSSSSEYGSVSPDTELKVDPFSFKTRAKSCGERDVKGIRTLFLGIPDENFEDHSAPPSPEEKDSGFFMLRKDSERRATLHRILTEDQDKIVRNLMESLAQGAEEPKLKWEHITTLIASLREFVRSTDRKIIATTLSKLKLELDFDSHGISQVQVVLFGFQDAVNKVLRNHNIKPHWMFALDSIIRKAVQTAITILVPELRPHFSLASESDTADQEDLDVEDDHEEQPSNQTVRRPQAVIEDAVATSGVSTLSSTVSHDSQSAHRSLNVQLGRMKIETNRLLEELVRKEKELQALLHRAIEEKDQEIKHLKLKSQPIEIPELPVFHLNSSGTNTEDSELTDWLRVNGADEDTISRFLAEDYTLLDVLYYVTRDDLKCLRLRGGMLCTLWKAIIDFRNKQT
Summary of the method: as §1

Structure (SMILES)	remaining activity at 1 µM (Src) [%]	remaining activity at 1 µM (GCK) [%]	remaining activity at 1 µM (JNK3) [%]	remaining activity at 1 µM (JNK1) [%]	remaining activity at 1 µM (ASK1) [%]
N=C(N)NCCC[C@@H](NC(=O)CCCCCNC(=O)Cn1cnc2c(I)c(I)c(I)c(I)c21)C(=O)N[C@H](CCCNC(=N)N)C(=O)N[C@H](CCCNC(=N)N)C(=O)N[C@H](CCCNC(=N)N)C(=O)N[C@H](CCCNC(=N)N)C(=O)N[C@H](CCCNC(=N)N)C(=O)N[C@H](CCCCN)C(N)=O [ARC-3125, TIBI-CH2-C(=O)-Ahx-(D-Arg)6-D-Lys-NH2]	153 ± 22	56 ± 4	120 ± 2	82 ± 13	93
N=C(N)NCCC[C@@H](NC(=O)CCCCCNCc1nc2c(sc3cc(Br)cnc32)c(=O)[nH]1)C(=O)N[C@H](CCCNC(=N)N)C(=O)N[C@H](CCCNC(=N)N)C(=O)N[C@H](CCCNC(=N)N)C(=O)N[C@H](CCCNC(=N)N)C(=O)N[C@H](CCCNC(=N)N)C(=O)N[C@H](CCCCN)C(N)=O [ARC-3126, BPTP-Ahx-(D-Arg)6-D-Lys-NH2] (X3-[dR][dR][dR][dR][dR][dR][dK]-NH2)	103 ± 2	88 ± 14	121 ± 5	116 ± 4	121 ± 11
N=C(N)NCCC[C@@H](NC(=O)CNC(=O)[C@@H](CCCNC(=N)N)NC(=O)[C@@H](CCCNC(=N)N)NC(=O)CCCCCCCNCc1nc2c(sc3cc(Br)cnc32)c(=O)[nH]1)C(=O)N[C@H](CCCCN)C(N)=O [Compound 1, BPTP-Aoc-(D-Arg)2-Gly-D-Arg-D-Lys-NH2]	97 ± 3	112	92	100 ± 13	99
N=C(N)NCCC[C@@H](NC(=O)CNC(=O)[C@@H](CCCNC(=N)N)NC(=O)[C@@H](CCCNC(=N)N)NC(=O)CCCCCCCNCc1nc2c(sc3ccc(Br)cc32)c(=O)[nH]1)C(=O)N[C@H](CCCCN)C(N)=O [Compound 2, BBTP-Aoc-(D-Arg)2-Gly-D-Arg-D-Lys-NH2]	110 ± 12	114 ± 2	108 ± 3	112 ± 2	102 ± 5
N=C(N)NCCC[C@@H](NC(=O)CNC(=O)[C@@H](CCCNC(=N)N)NC(=O)[C@@H](CCCNC(=N)N)NC(=O)Cn1cc(CNCc2nc3c(sc4ccc(Br)cc43)c(=O)[nH]2)nn1)C(=O)N[C@H](CCCCN)C(N)=O [Compound 3, BBTP-Amt-(D-Arg)2-Gly-D-Arg-D-Lys-NH2]	119 ± 1	97 ± 7	113 ± 22	115 ± 13	101 ± 2
